From IntAct's records for PubMed 21245303

B1: Segment polarity protein dishevelled homolog DVL-2 (Homo sapiens), O14641 (parent)
chain: MAGSSTGGGGVGETKVIYHLDEEETPYLVKIPVPAERITLGDFKSVLQRPAGAKYFFKSMDQDFGVVKEEISDDNARLPCFNGRVVSWLVSSDNPQPEMAPPVHEPRAELAPPAPPLPPLPPERTSGIGDSRPPSFHPNVSSSHENLEPETETESVVSLRRERPRRRDSSEHGAGGHRTGGPSRLERHLAGYESSSTLMTSELESTSLGDSDEEDTMSRFSSSTEQSSASRLLKRHRRRRKQRPPRLERTSSFSSVTDSTMSLNIITVTLNMEKYNFLGISIVGQSNERGDGGIYIGSIMKGGAVAADGRIEPGDMLLQVNDMNFENMSNDDAVRVLRDIVHKPGPIVLTVAKCWDPSPQAYFTLPRNEPIQPIDPAAWVSHSAALTGTFPAYPGSSSMSTITSGSSLPDGCEGRGLSVHTDMASVTKAMAAPESGLEVRDRMWLKITIPNAFLGSDVVDWLYHHVEGFPERREARKYASGLLKAGLIRHTVNKITFSEQCYYVFGDLSGGCESYLVNLSLNDNDGSSGASDQDTLAPLPGATPWPLLPTFSYQYPAPHPYSPQPPPYHELSSYTYGGGSASSQHSEGSRSSGSTRSDGGAGRTGRPEERAPESKSGSGSESEPSSRGGSLRRGGEASGTSDGGPPPSRGSTGGAPNLRAHPGLHPYGPPPGMALPYNPMMVVMMPPPPPPVPPAVQPPGAPPVRDLGSVPPELTASRQSFHMAMGNPSEFFVDVM

Variants of: B1
Settings: with axin1_human AXIN1, O15169
axin1_human AXIN1, O15169, sequence (O15169 whole entry): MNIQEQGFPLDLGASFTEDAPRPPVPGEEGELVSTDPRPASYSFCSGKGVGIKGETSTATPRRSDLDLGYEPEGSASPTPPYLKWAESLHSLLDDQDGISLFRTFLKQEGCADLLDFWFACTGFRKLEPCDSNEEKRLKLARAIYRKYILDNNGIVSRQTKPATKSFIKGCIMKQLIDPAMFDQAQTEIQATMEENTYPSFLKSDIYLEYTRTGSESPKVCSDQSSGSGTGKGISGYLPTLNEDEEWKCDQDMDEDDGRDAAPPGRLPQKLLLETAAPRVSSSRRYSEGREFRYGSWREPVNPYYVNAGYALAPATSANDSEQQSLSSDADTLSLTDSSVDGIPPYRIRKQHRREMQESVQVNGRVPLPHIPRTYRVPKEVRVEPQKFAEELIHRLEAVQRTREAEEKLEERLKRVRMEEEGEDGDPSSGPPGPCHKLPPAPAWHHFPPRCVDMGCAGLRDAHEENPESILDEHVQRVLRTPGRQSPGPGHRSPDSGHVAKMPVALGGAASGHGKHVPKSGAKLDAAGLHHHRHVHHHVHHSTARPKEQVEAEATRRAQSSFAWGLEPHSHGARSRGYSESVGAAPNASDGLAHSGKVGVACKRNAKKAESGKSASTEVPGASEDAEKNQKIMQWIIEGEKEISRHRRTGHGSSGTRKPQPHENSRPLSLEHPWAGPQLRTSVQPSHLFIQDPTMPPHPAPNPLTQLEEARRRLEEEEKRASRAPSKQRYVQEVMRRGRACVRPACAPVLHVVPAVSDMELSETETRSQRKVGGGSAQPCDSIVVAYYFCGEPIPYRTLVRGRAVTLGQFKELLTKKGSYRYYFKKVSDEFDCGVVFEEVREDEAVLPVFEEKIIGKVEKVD

Variant | effect of a mutation on the interaction
Y27D | disrupting interaction strength
